Source: publication PMC7948479, “Allostery in the nitric oxide dioxygenase mechanism of flavohemoglobin” (The Journal of Biological Chemistry, 2020)
Read-outs that look alike come from different tables or passages of the source.

What was measured:
[1] = system: E. coli growth; design: method as in PMID 11751865; conditions: atmosphere containing 5 μM O2 and 0.5 μM NO; cited from earlier work
[2] = Methyl viologen reductase activity; type: biochemical; conditions: 37 °C; anaerobic
Description: NADH oxidase activity was followed spectrophotometrically at 340 nm in a 1.0-ml cuvette containing 90 mM Tris chloride buffer, pH 8.2, 100 μM NADH, 200 μM O2, 0.1 μM FAD, 100 μg/ml BSA, and 0.3 mM EDTA and incubated at 37 °C. […] TMAO reductase activity was assayed by following the absorbance decrease at 340 nm in a 1.0-ml anaerobic reaction containing 12 U Aspergillus niger glucose oxidase, 5 mM glucose, 260 U catalase, 400 mM TMAO, 100 μM NADH, 0.1 μM FAD, 100 μg/ml BSA, and 0.3 mM EDTA in 90 mM Tris chloride pH 8.2 and incubated at 37 °C. […] Methyl viologen reductase activity was assayed by following the formation of the blue cation radical at 603 nm and by applying an extinction coefficient of 13,300 M^−1 cm^−1 in a 1.0-ml anaerobic reaction buffered with 10 mM potassium phosphate, pH 7.0, and containing 12 U glucose oxidase, 5 mM glucose, 260 U catalase, 100 μM NADH, 0.1 μM FAD, 100 μg/ml BSA, 0.3 mM EDTA, and 200 mM sodium chloride and incubated at 37 °C. NO reductase activity was assayed amperometrically at 37 °C in a 1.0-ml anaerobic reaction containing 2 μM NO, 100 μM NADH, 0.1 μM FAD, 12 U glucose oxidase, 5 mM glucose, 260 U catalase, 100 μg/ml BSA, and 0.3 mM EDTA buffered with 10 mM potassium phosphate pH 7.0. CO effects were tested at a final concentration of 50 μM as diluted from a 1 mM stock in water. […]

[3] = system: E. coli flavoHb-NOD; type: biochemical, Escherichia coli; conditions: for Ki: NO competitive with O2; for K3: NO passage through gate, apparent Km(NO); for Kii(NO): NO uncompetitive inhibition; for K2: O2 displacement of LeuE11; for k'NOD app: calculated from Vmax/K3; for k'NOD: calculated from Vmax/K4; for K4: reaction of NO with Fe^3+O2^−; for KT: trigger step equilibrium constant
Source text: (§1) We have formulated a steady-state velocity equation for the catalytic cycle with the activating trigger step (KT) (Equation 1).(1) v= Vmax(a) where a=([NO]^2[O2]^2/K1K2K3KTK4)/(1+([O2]/K1)+([O2]^2/K1K2)+(([O2]^2[NO])/K1K2K3)+(([O2]^2[NO])/K1K2K3KT)+(([O2]^2[NO]^2)/K1K2K3KTK4))
(§2) (2) v= Vmax(a)(b) where b=[NO]/(K3+([NO](1+((K2/[O2])(1+([NO]/Ki(NO)))))))
(§3) In addition, we have introduced a factor and equilibrium constant Ka(O2) for rare situations in which O2 causes an additional NO-independent activation of catalysis possibly by occupying unique binding sites or cavities (Equation 5).
(§4) NOD activity was measured amperometrically in 100 mM phosphate buffer, pH 7.0, containing 0.3 mM EDTA, 100 μg/ml bovine serum albumin (BSA) (Fraction V), 100 μM NADH, 0.1 μM FAD with NO, O2, and N2 mixtures added as described ([4], [72]). NADH oxidase activity was followed spectrophotometrically at 340 nm in a 1.0-ml cuvette containing 90 mM Tris chloride buffer, pH 8.2, 100 μM NADH, 200 μM O2, 0.1 μM FAD, 100 μg/ml BSA, and 0.3 mM EDTA and incubated at 37 °C. Cytochrome b5 reductase activity was assayed at 37 °C by following the rate of absorbance increase at 555 nm in a 1.0-ml reaction buffered with 90 mM Tris chloride, pH 8.2, and containing 10 μM ferric cytochrome b5, 200 μM O2, 20 μM NADH, 0.1 μM FAD, 100 μg/ml BSA, and 0.3 mM EDTA. TMAO reductase activity was assayed by following the absorbance decrease at 340 nm in a 1.0-ml anaerobic reaction containing 12 U Aspergillus niger glucose oxidase, 5 mM glucose, 260 U catalase, 400 mM TMAO, 100 μM NADH, 0.1 μM FAD, 100 μg/ml BSA, and 0.3 mM EDTA in 90 mM Tris chloride pH 8.2 and incubated at 37 °C. Ngb reductase activity was assayed by following the absorbance increase at 424 nm in a 1.0-ml anaerobic reaction containing 12 U glucose oxidase, 5 mM glucose, 260 U catalase, 5 μM Ngb, 50 μM NADH, 0.1 μM FAD, 100 μg/ml BSA, and 0.3 mM EDTA in 90 mM Tris chloride buffer, pH 8.2, and incubated at 37 °C. Methyl viologen reductase activity was assayed by following the formation of the blue cation radical at 603 nm and by applying an extinction coefficient of 13,300 M^−1 cm^−1 in a 1.0-ml anaerobic reaction buffered with 10 mM potassium phosphate, pH 7.0, and containing 12 U glucose oxidase, 5 mM glucose, 260 U catalase, 100 μM NADH, 0.1 μM FAD, 100 μg/ml BSA, 0.3 mM EDTA, and 200 mM sodium chloride and incubated at 37 °C. NO reductase activity was assayed amperometrically at 37 °C in a 1.0-ml anaerobic reaction containing 2 μM NO, 100 μM NADH, 0.1 μM FAD, 12 U glucose oxidase, 5 mM glucose, 260 U catalase, 100 μg/ml BSA, and 0.3 mM EDTA buffered with 10 mM potassium phosphate pH 7.0. CO effects were tested at a final concentration of 50 μM as diluted from a 1 mM stock in water. All activities are reported relative to the heme content of flavoHb.
(§5) Rate constants were estimated from the model kinetic equation using Python programming with successive approximations to optimize fits with varying NO and O2 concentrations. Vmax, K1, K2, KT, and Kii(NO) values were treated as independent variables for a given flavoHb while allowing K3, K4, and Ki(NO) to vary over limited ranges with varying O2 concentration. Kii(NO) was estimated from NO inhibition at saturating O2 concentrations.

[4] = design: method as in PMID 7821669; conditions: cited from earlier work
[5] = target: T1, E. coli flavoHb-NOD (Escherichia coli, UniProt P24232); type: biochemical; design: made in house; host or cells: E. coli hmp deletion strain AG103 carrying pUC19hmp
Source text: as §1, §2, §3, §4, §5

[6] = target: T1, E. coli flavoHb-NOD; conditions: read-out: theoretical Km(O2) (Vmax/k'O2); cited from earlier work
[7] = system: E. coli flavoHb-NOD; conditions: entry of O2 into the LT, value assumed for fitting, cited from earlier work
[8] = system: E. coli flavoHb-NOD
Description: as §4

[9] = system: ferric cytochrome b5; test: Cytochrome b5 reductase activity; type: biochemical, rat; conditions: 37 °C; 10 μM ferric cytochrome b5
Source text: Reagents were purchased from Sigma-Aldrich Chemical Co (St Louis, MO, USA) unless otherwise stated. DNA primers were synthesized at the University of Cincinnati Medical Center DNA facility. Praxair (Bethlehem, PA, USA) was the supplier of 99.993% O2, 99.999% CO, and 99.98% N2. Bovine liver catalase (260,000 U/ml) was obtained from Roche Applied Science. Recombinant rat cytochrome b5 (soluble form) and murine Ngb were expressed in E. coli and purified essentially as described ([10], [70]). NADH purity (≥95%) was assessed by the ratio of the 340 to 260 nm absorbance with a value of 0.437 equal to 100% reduced.

B1: WT: wild-type E. coli flavohemoglobin (flavoHb), an NO dioxygenase (NOD) (protein, UniProt P24232 1-396, looked up)
Flavohemoprotein: MLDAQTIATVKATIPLLVETGPKLTAHFYDRMFTHNPELKEIFNMSNQRNGDQREALFNAIAAYASNIENLPALLPAVEKIAQKHTSFQIKPEQYNIVGEHLLATLDEMFSPGQEVLDAWGKAYGVLANVFINREAEIYNENASKAGGWEGTRDFRIVAKTPRSALITSFELEPVDGGAVAEYRPGQYLGVWLKPEGFPHQEIRQYSLTRKPDGKGYRIAVKREEGGQVSNWLHNHANVGDVVKLVAPAGDFFMAVADDTPVTLISAGVGQTPMLAMLDTLAKAGHTAQVNWFHAAENGDVHAFADEVKELGQSLPRFTAHTWYRQPSEADRAKGQFDSEGLMDLSKLEGAFSDPTMQFYLCGPVGFMQFTAKQLVDLGVKQENIHYECFGPHKVL
For B1, the “protection of E. coli growth” value [1] is given as “fully protects”, the “methyl viologen reductase activity” value [2] is given as 0.36 s^−1 and the Vmax ([3]; 20 °C) is given as 160 NO heme^−1 s^−1. For the same molecule, the Ki ([3]; 20 °C) was 300 to 1000 nM, the K3 ([3]; 20 °C) was 0.1–0.4 Micromolar and the “Kii(NO)” value ([3]; 20 °C) was 10 (10) Micromolar. The K2 ([3]; 20 °C) was 20 Micromolar, the “k'NOD app” value ([3]; 20 °C) was 0.4–1.6 10^9 M^−1 s^−1 and the “k'NOD” value ([3]; 20 °C) was 0.5–2.7 10^9 M^−1 s^−1. The K4 ([3]; 20 °C) was 0.06–0.3 Micromolar, the KT ([3]; 20 °C) was 0.1 (0.1) and the Vmax ([3]; 37 °C) was 580 NO heme^−1 s^−1. The Ki ([3]; 37 °C) was 700 to 1200 nM, the K3 ([3]; 37 °C) was 0.25 Micromolar and the “Kii(NO)” value ([3]; 37 °C) was 10 (10) Micromolar. The K2 ([3]; 37 °C) was 120 Micromolar, the “k'NOD app” value ([3]; 37 °C) was 2.3 10^9 M^−1 s^−1 and the “k'NOD” value ([3]; 37 °C) was 9.7–19 10^9 M^−1 s^−1. The K4 ([3]; 37 °C) was 0.03–0.06 Micromolar, the KT ([3]; 37 °C) was 0.1 (0.1) and the “overall activation energy (Ea)” value ([3]; Arrhenius equation for Vmax at 37 and 20 °C) was roughly 13.7 kcal/mol. The “FAD/FADH2 potential (E^0)” value [4] was less than −0.15 V, the “nominal heme mid-point potential” value [4] was −0.125 V and the Vmax/K3 [5] was 2.3e+09 M⁻¹ s⁻¹. The “bimolecular rate constant of ferric–superoxide complex with internalized NO” value [5] was 10^10 M^−1 s^−1, the “k'NOD estimated from the Vmax/K4 ratio” value [5] was 1 to 2 × 10^10 M^−1 s^−1 and the “velocity of NOD activity” value [5] was 8 s⁻¹. For the same molecule, the Ki ([5]; read-out: Ki(NO) for NO competition with O2 for LT entry) was 300 to 1200 nM, the Km [6] was roughly 2 µM and the K1 ([7]; 20 °C) was 2 (2) Micromolar. The K1 ([7]; 37 °C) was 2 (2) Micromolar, the “Δv/Δ[NADH]” value ([8]; 20 °C) was 36 s⁻¹ µM⁻¹ and the “Δv/Δ[NADH]” value ([8]; 20 °C, 130 nM NO) was 30 s⁻¹ µM⁻¹. The “Δv/Δ[NADH]” value ([8]; 37 °C) was 59 s⁻¹ µM⁻¹, the “Δv/Δ[NADH]” value ([8]; 37 °C, 130 nM NO) was 59 s⁻¹ µM⁻¹ and the “cytochrome b5 reductase activity” value [9] was 0.14 s⁻¹.
